Reference: paper PMC12654638

Biological target: carotenoependymin-Purple1 (Cep-Purple1) (Haliclona sp. (purple sponge))
Test: SEC; HPLC size-exclusion chromatography (TSKgel G3000SWXL), calibrated with molecular standards; native protein estimated at 41-43 kDa against 23 kDa on SDS-PAGE

stoichiometry N: 2
Substance: carotenoependymin-Purple1 (Cep-Purple1) (natural protein)
